Laboratory results published in patent US6613875B1, “Cyclic peptide tube” (The Scripps Research Institute, priority 1993, dated 2003).
Square brackets hold non-standard residues; d marks the D form. Peptide text beside a SMILES is read from it. dNMeA = CN[C@H](C)C(=O)O

Experiments:
[1] = Proton transport (collapse of pH gradient) in vesicles with entrapped 5(6)-carboxyfluorescein; type: biochemical; details: vesicles pH 6.5 inside, pH 5.5 outside; 25° C.; equal molar amounts of channel forming compounds
From the text: The proton efflux is expressed in terms of the fractional change in the fluorescence intensity of vesicle entrapped 5(6)-carboxyfluorescein as a function of time (sampling time was at 0.3 seconds interval). Equal molar amounts of channel forming compounds were used in each experiment to allow direct comparisons of channel-mediated proton transport activity. The amount of added channel forming compounds in each experiment ranged from of 2 to 20 nmoles corresponding to approximately 150 channels per liposome for the lowest concentrations to 1100 channels per liposome for the highest amount of added compounds.
Formation of transmembrane channels was also inferred from its highly efficient proton transport activity. Vesicles were prepared having pH 6.5 inside and pH 5.5 in the outside bulk solution. The collapse of the imposed pH gradient in these vesicles, upon formation of the putative transmembrane channel structure, was studied by monitoring the fluorescence intensity of an entrapped pH-sensitive dye. (V.E. Carmichael et al, in J.Am. Chem. Soc. (1989), vol. 111, pages 767-769). […] Unilamellar vesicles were prepared by the reverse-phase evaporation using DPPC, OPPC, cholestrol in the ratio of 1:1:2 in a solution containing 5(6)-carboxyfluorescein (20 mM in phosphate/saline buffer: 137 mM NaCl, 2.6 mM KCl, 6.4 mM Na2HPO4, 1.4 mM KH2PO4, pH 6.5) according to the method of F. Szoka et al. in Proc. Natl. Acad. Sci. USA (1978), vol. 75, pages 4194-4198. […] Vesicles formed in this way are approximately 150 nanometer in diameter as determined by electron microscopy. […] To the cuvett, through an injector port, […] of the channel forming compounds in DMSO was added with continuous fluorescence monitoring at 520 nm (excitation at 470 nm). The observed data were then normalized for comparison into the fractional change in fluorescence ((I0−It)/(I0−I∞)) (V. E. Carmichael et al, in J.Am. Chem. Soc. (1989), vol. 111, pages 767-769)). […]

[2] = Incorporation of peptide subunit into lipid bilayers of large unilamellar vesicles (absorption and fluorescence spectroscopy); type: physicochemical; details: aqueous liposomal suspensions
From the text: Incorporation of the peptide subunit into lipid bilayers using large unilamellar vesicles has been established by absorption and fluorescence spectroscopy. Formation of the hydrogen-bonded transmembrane channel structure in phosphatidylcholin liposomes has been supported by FT-IR spectroscopy (FIG. 24). The observed amide-I band at 1624 cm^−1 is not only similar to the carbonyl stretching frequencies found in other nanotube structures disclosed herein, but is also consistent with the infrared spectrum of gramicidin A in similar lipid bilayers. (E. Nabedryk et al in Biophys. J. (1982), vol. 38, pages 243-249. Furthermore, the observed N-H stretching frequency at 3272 cm^−1 strongly supports the formation of a tight network of hydrogen bonds with an average intersubunit distance of 4.7 Å.
The second control peptide cyclo[-(^MeN-D-Ala-Phe)4-] which has the desirable hydrophobic surface characteristics but lacks the propensity for participating in extended hydrogen bonding network, was also designed and tested for ion transport activity. The peptide design incorporates a novel N-methylation strategy on one face of the ring structure which predisposes the subunit toward a dimeric cylindrical structure (Ghadiri, M. R., Kobayashi, K., Granja, J. R., Chadha, R., and McRee, D. E. manuscript in preparation). Such a dimeric cylindrical ensemble is approximately 10 Å thick and can not span the lipid bilayer.
The ten-residue peptide subunit employed in the present study, cyclo[-Gln-(D-Leu-Trp)4-D-Leu-], is made up of largely tryptophan and leucine residues to favor its partitioning into and self-assembly in lipid bilayers. It was synthesized on solid support^5 and characterized by ^1H NMR spectroscopy and mass spectrometry. […] This has been supported by absorption and fluorescence spectrophotometry and gel permeation studies. Formation of a hydrogen bonded transmembrane channel structure in phosphatidylcholin liposomes has been established by FT-IR spectroscopy^6. […]

[3] = Dimerization (self-assembly) of N-methylated cyclic peptide in nonpolar solvents, 1H NMR / van't Hoff; type: physicochemical
From the text: Variable temperature NMR experiments in DMSO indicate cis-trans conformational activation barriers on the order of 16 to 17 kcal.mol^−1. However, in nonpolar solvents such as carbon tetrachloride (CCl4) or deuterochloroform (CDCl3) the peptide exists in an all trans flat-ring-shaped backbone conformation which is in dynamic equilibrium with the expected dimeric cylindrical ensemble. […] The preponderance of a flat ring-shaped backbone conformation is also indicated by the observed 7.5 Hz JNH-CaH coupling constant. Intermolecular hydrogen bonding interactions producing the stacked dimeric ensemble are signified by the expected downfield shift of the phenylalanine N—H backbone resonance from 6.98 to 8.73 ppm (JNH-CaH=8.5 Hz) and are unequivocally established by the observed exchange and NOE cross peaks in its ROESY spectrum.
Formation of a tight hydrogen bonded ensemble with an average intersubunit N—O distance of 2.95 Å is also evidenced by the appearance of an N—H stretching band in the infrared spectrum at 3309 cm^−1.
[…] […] The Ka(CCl4) reported was performed in a mixture of 84% CCl4 and 16% CDCl3 for solubility reasons.
Variable temperature studies (van't Hoff plots) establish the following thermodynamic parameters for the dimerization process in chloroform: ΔCp=−203.1 cal.K^−1.mol^−1, ΔH^0298=−11.0 kcal.mol^−1, and ΔS^0298=−23.7 e.u. which clearly supports the expected enthalpic contribution of intermolecular hydrogen bonding interactions (0.5 to 0.7 kcal.mol^−1 for each hydrogen bonding interaction) as the major driving force in the self-assembly process.
The above experiments indicate that the peptide subunit adopts a flat ring-shaped solution conformation which is energetically favored toward ring stacking and intermolecular hydrogen bonding interactions by 4.0 to 5.6 kcal.mol^−1, depending on the solvent employed. It follows then that an additive gain in free energy of stabilization is to be expected as the number of ring-stacking interactions are increased. This is particularly relevant to the self-assembled nanotubes and to the transmembrane ion channel structures that can be produced.

[4] = pH dependent solubility of peptide subunit in aqueous media; type: physicochemical
From the text: FIG. 17 illustrates the hydrogen bonding of molecular tubes constructed with cyclic peptide 1.
The design, synthesis, and characterization of a molecular tube, i.e., a cyclic peptide tube or “organic nanotube,” is described. A rationally designed 24-membered ring peptide structure can be constructed and shown to undergo a proton-triggered self-assembly to produce tubular structures hundreds of nanometers long, with internal van der Waals diameter of 7 to 8 Å. Formation of tubular structures is established by Electron Microscopy (EM), electron diffraction studies, and Fourier Transformed Infrared Spectroscopy (FT-IR). A three-dimensional model of the molecular tube consistent with the experimental observations is also presented. As opposed to the recently identified closed concentric graphite tubes, cyclic peptide tubes, by virtue of the cyclic nature of their components, are open ended structures and have uniform shape and internal diameter, e.g., Tsang, S. C. et al. (1993), Nature 362, 520-522 and Ajayan, P. M. et al. (1993), Nature 362, 522-525 (1993). The proton-triggered self-assembly process described herein is a highly convergent approach in which numerous ring-shaped peptide subunits interact through an extensive network of hydrogen bonds to form molecular tube structures. Example I features an eight-residue cyclic peptide with the following sequence: cyclo[-(D-Ala-Glu-D-Ala-Gln)2-]. (Sequence No.: 1) In designing the subunit, it is shown that cyclic peptides with an even number of alternating D- and L-amino acids can adopt or sample a low energy ring-shaped flat conformation in which all backbone amide functionalities lie approximately perpendicular to the plane of the structure. In this conformation, subunits can stack in an anti-parallel fashion and participate in backbone-backbone intermolecular hydrogen bonding to furnish a contiguous β-sheet structure. Moreover, because of the alternating D- and L-amino acid sequence, peptide side chains must \necessarily lie on the exterior of the ensemble thereby creating the desired hollow tubular core structure. […]

Compound	apparent ion (proton) transport activity [1]	partitioning / incorporation into lipid bilayers [2]	association constant Ka(CCl4) of dimerization ([3]; 293 K, mixture of 84% CCl4 and 16% CDCl3, lower limit (included water)) [M⁻¹]	ΔCp of dimerization ([3]; chloroform, van't Hoff plots) [cal.K^−1.mol^−1]	ΔH^0298 of dimerization ([3]; chloroform, van't Hoff plots) [kcal/mol]	ΔS^0298 of dimerization ([3]; chloroform, van't Hoff plots) [e.u.]	association constant Ka(CDCl3) of dimerization ([3]; water rigorously excluded (4 Å molecular sieves)) [M⁻¹]	solubility in aqueous media ([4]; acidic / low pH)	solubility in aqueous media ([4]; acidic / low pH, listed as cyclo[-(D-Ala-Glu-D-Ala-Gln)2-])	solubility in aqueous media ([4]; high (alkaline) pH)
cyclo[-(L-Phe-D-^Me NAla)4-] (cyclo(F[dNMeA]F[dNMeA]F[dNMeA]F[dNMeA]); SMILES C[C@@H]1C(=O)N[C@@H](Cc2ccccc2)C(=O)N(C)[C@H](C)C(=O)N[C@@H](Cc2ccccc2)C(=O)N(C)[C@H](C)C(=O)N[C@@H](Cc2ccccc2)C(=O)N(C)[C@H](C)C(=O)N[C@@H](Cc2ccccc2)C(=O)N1C) [N-methylated cap subunit / second control peptide, forms dimeric cylindrical structure]	does not promote proton transport activity	partition effectively	14000	−203.1	-11.0	−23.7	2540	–	–	–
cyclo[-(Gln-D-Leu)4-] (cyclo(Q[dL]Q[dL]Q[dL]Q[dL]); SMILES CC(C)C[C@H]1NC(=O)[C@H](CCC(N)=O)NC(=O)[C@@H](CC(C)C)NC(=O)[C@H](CCC(N)=O)NC(=O)[C@@H](CC(C)C)NC(=O)[C@H](CCC(N)=O)NC(=O)[C@@H](CC(C)C)NC(=O)[C@H](CCC(N)=O)NC1=O) [cyclo[-(Gln-D-Leu)4], control peptide lacking surface characteristics for partitioning into lipid bilayers]	does not display any ion transport activity	–	–	–	–	–	–	–	–	–
C[C@H]1NC(=O)[C@H](CCC(N)=O)NC(=O)[C@@H](C)NC(=O)[C@H](CCC(=O)O)NC(=O)[C@@H](C)NC(=O)[C@H](CCC(N)=O)NC(=O)[C@@H](C)NC(=O)[C@H](CCC(=O)O)NC1=O [cyclic peptide 1, cyclo[-(Gln-D-Ala-Glu-D-Ala)2-]] (cyclo(Q[dA]E[dA]Q[dA]E[dA]))	–	–	–	–	–	–	–	lower water solubility	lower solubility	high water solubility
